# Laboratory results from patent US20090263410A1, “USE OF TGF-B1 INHIBITOR PEPTIDES IN THE PREPARATION OF AN IMMUNE RESPONSE MODULATING AGENT” (Proyecto De Biomedicina Cima, S.L., priority 2005, published 2009).
# Tests used:
# TGF-β1 = biological target: T1, TGF-β1 (Mus musculus, UniProt P04202); test: In vivo activity of recombinant adenovirus for mouse IL-12: IFN-γ and NO levels in serum; parameters: species or system BALB/c mice
# T1 construct: an in vivo system wherein TGF-β1 acts as supposed antagonist of the cytokines induced in this model; from tissue; host or cells: living BALB/c mice (Harlan), endogenous TGF-β1; read-out in serum
# T1 sequence (P04202 279-390 limits assumed): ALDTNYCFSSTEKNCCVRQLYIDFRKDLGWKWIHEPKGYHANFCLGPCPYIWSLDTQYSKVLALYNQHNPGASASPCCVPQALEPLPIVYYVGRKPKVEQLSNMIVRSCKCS
# Text: This example studies the effect of peptide p144 in an in vivo system wherein TGF-β1 acts as supposed antagonist of the cytokines induced in this model. The production of mouse IL-12 by the expression of a transgen included in the recombinant adenovirus, induces an inflammatory state through the induction of a cascade of factors, including IFN-γ and nitric oxide. TGF-β1 has been described as an inhibitor of the production and biological action of IL-12, IFN-γ and NO (Pardoux C. et al., 1999; Schini V. B. et al., 1992). […]
# Blood samples were extracted from both groups on days 6 and 9 after immunization for the subsequent quantification of IFN-γ and NO levels in serum.
# The quantity of IFN-γ was measured by a commercial ELISA (Mouse IFN-γ Duoset ELISA Development System, Genzyme, Cambridge and OPTEIA Mouse IFN-γ Ser, Pharmingen, San Diego, USA) in accordance with the manufacturer's instructions. The results were expressed as pg/ml of IFN-γ and using a standard curve of known quantities of IFN-γ. […]
# NO2* emission is in the red and infrared region of the light spectrum and is detected by a red-sensitive photomultiplier tube. This signal is quantified and the data obtained are collected and processed by a computer.
# CT26 cells = test: Protection against growth of CT26 cells after immunization with AH1 + LVQ mixtures; assay type: in vivo, BALB/c mice; details: mice protected/total; immunization mixtures in Freund's incomplete adjuvant; 500,000 CT26 cells subcutaneous
# Text: […] is a peptide which is presented by the MHC-II on the surface of the presenting cell, and a DTc is a peptide which is presented by MHC-I on the surface of the presenting cell and in tumour cells. It is known that the joint immunization of a DTc (AH1 peptide) and a DTh (LVQ peptide), both peptides coming from the gp70 protein of the tumour antigen expressed by CT26 cells, was capable of protecting against the subcutaneous growth of 500,000 CT26 tumour cells. Since TGF-β1 is important in the immune response induction process, we wanted to study the effect of peptide p144 on the induction of the response responsible for protection against the growth of CT26 cells. As is indicated in Table 1, three groups of BALB/c mice were immunized with the following mixtures of Freund's incomplete adjuvant: (i) with AH1 LVQ, (ii) with AH1+LVQ+p144 and (iii) just with Freund's incomplete adjuvant.
substance,measurement,setting,value
p144: peptide inhibiting TGF-β1 whose amino acid sequence corresponds to SEQ ID NO: 1 (TSLDASIIWAMMQN; Synthetic Construct from human TGB-Beta1 type III receptor.Domain730-743),serum levels of IFN-γ,"TGF-β1; RAd IL-12 1×10^8 pfu i.p. plus p144 daily 100 μg for 5 days, versus RAd IL-12 alone",increases
same,NO serum levels,"TGF-β1; day 6, RAd IL-12 1×10^8 pfu i.p. plus p144, versus RAd IL-12 alone",greater level
same,Protection level against the growth of CT26 cells,CT26 cells,negative effect on protection
